Results from patent US20150344570A1 (published 2015).

T1: FcγRIIb extracellular domain with C-terminal His tag (human, UniProt P31994 43-217)
T1 construct: extracellular domain; also called 2b; FcgRIIb
T1 sequence (looked up): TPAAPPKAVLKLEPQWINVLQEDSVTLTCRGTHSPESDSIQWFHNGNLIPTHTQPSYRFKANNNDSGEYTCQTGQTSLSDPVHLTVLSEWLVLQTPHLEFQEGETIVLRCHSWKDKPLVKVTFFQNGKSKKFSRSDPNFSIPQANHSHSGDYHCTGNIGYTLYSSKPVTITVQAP


What was measured:
[1] = target: T1, FcγRIIb extracellular domain with …; test: SPR, binding relative to GpH7-A5/GpH7-B3/GpL16-k0 = 100
Experimental: (§1) The heterodimerized antibodies He Abs in which one of the H chains was introduced with an alteration were assayed for their binding activities to each activating FcγR and inhibitory FcγR according to the method described in Example 4. […] The activating FcγRs in FIGS. 26, 27, 28, and 29 are FcγRIa, FcγRIIa (R), FcγRIIa (H), and FcγRIIIa, respectively.
(§2) Analysis of interaction between objective antibody and the FcγR was carried out using Biacore T100 (GE Healthcare). HBS-EP+ (GE Healthcare) was used as the running buffer, and the measurement temperature was set to 25° C. Chips produced by immobilizing the antigen peptide by the amine coupling method to a Series S Sencor Chip CM5 (GE Healthcare), or alternatively, chips produced by allowing preliminarily biotinylated antigen peptides to interact with and immobilize onto a Series S Sensor Chip SA (certified) (GE Healthcare) were used. Antibodies of interest were captured onto an antigen peptide-immobilized chip, and allowed to interact to each FcγR diluted with running buffer. To regenerate and repeatedly use the chip, the antibodies captured on the chip were washed off by reacting 10 mM glycine-HCl, pH 1.5.

[2] = target: T2, FcγRIIIa extracellular domain with C-terminal His tag (human, UniProt P08637 17-208); test: as above
T2 construct: extracellular domain; also called 3a; FcgRIIIa
T2 sequence (P08637 17-208): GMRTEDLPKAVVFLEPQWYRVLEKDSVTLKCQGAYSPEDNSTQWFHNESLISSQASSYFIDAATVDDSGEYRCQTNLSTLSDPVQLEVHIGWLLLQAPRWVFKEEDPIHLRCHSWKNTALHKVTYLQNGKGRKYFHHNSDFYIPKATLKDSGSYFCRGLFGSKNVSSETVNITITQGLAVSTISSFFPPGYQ
Experimental: as §1, §2

| He/Con_2b [1] | He/Con_3a [2] | Binder |
| --- | --- | --- |
| 83.3 % of control | 103 % of control | GpH7-A5/GpH7-B3 variant E333_16H/GpL16-k0 (antibody, human IgG1, kappa, also called He Ab) heavy 1: not shown heavy 2: not shown light: DIVMTQSPLSLPVTPGEPASISCQASESLVHSNRNTYLHWYLQKPGQSPQLLIYKVSNRFSGVPDRFSGSGSGTDFTLKISRVEAEDVGVYYCSQNTHVPPTFGQGTKVEIERTVAAPSVFIFPPSDEQLKSGTASVVCLLNNFYPREAKVQWKVDNALQSGNSQESVTEQDSKDSTYSLSSTLTLSKADYEKHKVYACEVTHQGLSSPVTKSFNRGEC |
| 89.5 % of control | 101 % of control | GpH7-A5/GpH7-B3 variant E333_20W/GpL16-k0 (antibody, human IgG1, kappa, also called He Ab) heavy 1: not shown heavy 2: not shown light: DIVMTQSPLSLPVTPGEPASISCQASESLVHSNRNTYLHWYLQKPGQSPQLLIYKVSNRFSGVPDRFSGSGSGTDFTLKISRVEAEDVGVYYCSQNTHVPPTFGQGTKVEIERTVAAPSVFIFPPSDEQLKSGTASVVCLLNNFYPREAKVQWKVDNALQSGNSQESVTEQDSKDSTYSLSSTLTLSKADYEKHKVYACEVTHQGLSSPVTKSFNRGEC |
| 94.8 % of control | 160 % of control | GpH7-A5/GpH7-B3 variant K334_09D/GpL16-k0 (antibody, human IgG1, kappa, also called He Ab) heavy 1: not shown heavy 2: not shown light: DIVMTQSPLSLPVTPGEPASISCQASESLVHSNRNTYLHWYLQKPGQSPQLLIYKVSNRFSGVPDRFSGSGSGTDFTLKISRVEAEDVGVYYCSQNTHVPPTFGQGTKVEIERTVAAPSVFIFPPSDEQLKSGTASVVCLLNNFYPREAKVQWKVDNALQSGNSQESVTEQDSKDSTYSLSSTLTLSKADYEKHKVYACEVTHQGLSSPVTKSFNRGEC |
| 97.6 % of control | 104 % of control | GpH7-A5/GpH7-B3 variant I336_18N/GpL16-k0 (antibody, human IgG1, kappa, also called He Ab) heavy 1: not shown heavy 2: not shown light: DIVMTQSPLSLPVTPGEPASISCQASESLVHSNRNTYLHWYLQKPGQSPQLLIYKVSNRFSGVPDRFSGSGSGTDFTLKISRVEAEDVGVYYCSQNTHVPPTFGQGTKVEIERTVAAPSVFIFPPSDEQLKSGTASVVCLLNNFYPREAKVQWKVDNALQSGNSQESVTEQDSKDSTYSLSSTLTLSKADYEKHKVYACEVTHQGLSSPVTKSFNRGEC |
| 66.8 % of control | 115 % of control | GpH7-A5/GpH7-B3 variant Q295_14T/GpL16-k0 (antibody, human IgG1, kappa, also called He Ab) heavy 1: not shown heavy 2: not shown light: DIVMTQSPLSLPVTPGEPASISCQASESLVHSNRNTYLHWYLQKPGQSPQLLIYKVSNRFSGVPDRFSGSGSGTDFTLKISRVEAEDVGVYYCSQNTHVPPTFGQGTKVEIERTVAAPSVFIFPPSDEQLKSGTASVVCLLNNFYPREAKVQWKVDNALQSGNSQESVTEQDSKDSTYSLSSTLTLSKADYEKHKVYACEVTHQGLSSPVTKSFNRGEC |
| 89.8 % of control | 119 % of control | GpH7-A5/GpH7-B3 variant I336_10E/GpL16-k0 (antibody, human IgG1, kappa, also called He Ab) heavy 1: not shown heavy 2: not shown light: DIVMTQSPLSLPVTPGEPASISCQASESLVHSNRNTYLHWYLQKPGQSPQLLIYKVSNRFSGVPDRFSGSGSGTDFTLKISRVEAEDVGVYYCSQNTHVPPTFGQGTKVEIERTVAAPSVFIFPPSDEQLKSGTASVVCLLNNFYPREAKVQWKVDNALQSGNSQESVTEQDSKDSTYSLSSTLTLSKADYEKHKVYACEVTHQGLSSPVTKSFNRGEC |
| 79.7 % of control | 106 % of control | GpH7-A5/GpH7-B3 variant Q295_02A/GpL16-k0 (antibody, human IgG1, kappa, also called He Ab) heavy 1: not shown heavy 2: not shown light: DIVMTQSPLSLPVTPGEPASISCQASESLVHSNRNTYLHWYLQKPGQSPQLLIYKVSNRFSGVPDRFSGSGSGTDFTLKISRVEAEDVGVYYCSQNTHVPPTFGQGTKVEIERTVAAPSVFIFPPSDEQLKSGTASVVCLLNNFYPREAKVQWKVDNALQSGNSQESVTEQDSKDSTYSLSSTLTLSKADYEKHKVYACEVTHQGLSSPVTKSFNRGEC |
| 84.9 % of control | 111 % of control | GpH7-A5/GpH7-B3 variant I336_02A/GpL16-k0 (antibody, human IgG1, kappa, also called He Ab) heavy 1: not shown heavy 2: not shown light: DIVMTQSPLSLPVTPGEPASISCQASESLVHSNRNTYLHWYLQKPGQSPQLLIYKVSNRFSGVPDRFSGSGSGTDFTLKISRVEAEDVGVYYCSQNTHVPPTFGQGTKVEIERTVAAPSVFIFPPSDEQLKSGTASVVCLLNNFYPREAKVQWKVDNALQSGNSQESVTEQDSKDSTYSLSSTLTLSKADYEKHKVYACEVTHQGLSSPVTKSFNRGEC |
| 94.3 % of control | 110 % of control | GpH7-A5/GpH7-B3 variant I332_19Q/GpL16-k0 (antibody, human IgG1, kappa, also called He Ab) heavy 1: not shown heavy 2: not shown light: DIVMTQSPLSLPVTPGEPASISCQASESLVHSNRNTYLHWYLQKPGQSPQLLIYKVSNRFSGVPDRFSGSGSGTDFTLKISRVEAEDVGVYYCSQNTHVPPTFGQGTKVEIERTVAAPSVFIFPPSDEQLKSGTASVVCLLNNFYPREAKVQWKVDNALQSGNSQESVTEQDSKDSTYSLSSTLTLSKADYEKHKVYACEVTHQGLSSPVTKSFNRGEC |
| 98.4 % of control | 104 % of control | GpH7-A5/GpH7-B3 variant I332_13S/GpL16-k0 (antibody, human IgG1, kappa, also called He Ab) heavy 1: not shown heavy 2: not shown light: DIVMTQSPLSLPVTPGEPASISCQASESLVHSNRNTYLHWYLQKPGQSPQLLIYKVSNRFSGVPDRFSGSGSGTDFTLKISRVEAEDVGVYYCSQNTHVPPTFGQGTKVEIERTVAAPSVFIFPPSDEQLKSGTASVVCLLNNFYPREAKVQWKVDNALQSGNSQESVTEQDSKDSTYSLSSTLTLSKADYEKHKVYACEVTHQGLSSPVTKSFNRGEC |
| 64.5 % of control | 109 % of control | GpH7-A5/GpH7-B3 variant S298_03V/GpL16-k0 (antibody, human IgG1, kappa, also called He Ab) heavy 1: not shown heavy 2: not shown light: DIVMTQSPLSLPVTPGEPASISCQASESLVHSNRNTYLHWYLQKPGQSPQLLIYKVSNRFSGVPDRFSGSGSGTDFTLKISRVEAEDVGVYYCSQNTHVPPTFGQGTKVEIERTVAAPSVFIFPPSDEQLKSGTASVVCLLNNFYPREAKVQWKVDNALQSGNSQESVTEQDSKDSTYSLSSTLTLSKADYEKHKVYACEVTHQGLSSPVTKSFNRGEC |
| 87.1 % of control | 111 % of control | GpH7-A5/GpH7-B3 variant I332_01G/GpL16-k0 (antibody, human IgG1, kappa, also called He Ab) heavy 1: not shown heavy 2: not shown light: DIVMTQSPLSLPVTPGEPASISCQASESLVHSNRNTYLHWYLQKPGQSPQLLIYKVSNRFSGVPDRFSGSGSGTDFTLKISRVEAEDVGVYYCSQNTHVPPTFGQGTKVEIERTVAAPSVFIFPPSDEQLKSGTASVVCLLNNFYPREAKVQWKVDNALQSGNSQESVTEQDSKDSTYSLSSTLTLSKADYEKHKVYACEVTHQGLSSPVTKSFNRGEC |
| 92.1 % of control | 106 % of control | GpH7-A5/GpH7-B3 variant I336_09D/GpL16-k0 (antibody, human IgG1, kappa, also called He Ab) heavy 1: not shown heavy 2: not shown light: DIVMTQSPLSLPVTPGEPASISCQASESLVHSNRNTYLHWYLQKPGQSPQLLIYKVSNRFSGVPDRFSGSGSGTDFTLKISRVEAEDVGVYYCSQNTHVPPTFGQGTKVEIERTVAAPSVFIFPPSDEQLKSGTASVVCLLNNFYPREAKVQWKVDNALQSGNSQESVTEQDSKDSTYSLSSTLTLSKADYEKHKVYACEVTHQGLSSPVTKSFNRGEC |
| 90.3 % of control | 112 % of control | GpH7-A5/GpH7-B3 variant I336_03V/GpL16-k0 (antibody, human IgG1, kappa, also called He Ab) heavy 1: not shown heavy 2: not shown light: DIVMTQSPLSLPVTPGEPASISCQASESLVHSNRNTYLHWYLQKPGQSPQLLIYKVSNRFSGVPDRFSGSGSGTDFTLKISRVEAEDVGVYYCSQNTHVPPTFGQGTKVEIERTVAAPSVFIFPPSDEQLKSGTASVVCLLNNFYPREAKVQWKVDNALQSGNSQESVTEQDSKDSTYSLSSTLTLSKADYEKHKVYACEVTHQGLSSPVTKSFNRGEC |
| 92.5 % of control | 121 % of control | GpH7-A5/GpH7-B3 variant K334_01G/GpL16-k0 (antibody, human IgG1, kappa, also called He Ab) heavy 1: not shown heavy 2: not shown light: DIVMTQSPLSLPVTPGEPASISCQASESLVHSNRNTYLHWYLQKPGQSPQLLIYKVSNRFSGVPDRFSGSGSGTDFTLKISRVEAEDVGVYYCSQNTHVPPTFGQGTKVEIERTVAAPSVFIFPPSDEQLKSGTASVVCLLNNFYPREAKVQWKVDNALQSGNSQESVTEQDSKDSTYSLSSTLTLSKADYEKHKVYACEVTHQGLSSPVTKSFNRGEC |
| 94.8 % of control | 100 % of control | GpH7-A5/GpH7-B3 variant Q295_10E/GpL16-k0 (antibody, human IgG1, kappa, also called He Ab) heavy 1: not shown heavy 2: not shown light: DIVMTQSPLSLPVTPGEPASISCQASESLVHSNRNTYLHWYLQKPGQSPQLLIYKVSNRFSGVPDRFSGSGSGTDFTLKISRVEAEDVGVYYCSQNTHVPPTFGQGTKVEIERTVAAPSVFIFPPSDEQLKSGTASVVCLLNNFYPREAKVQWKVDNALQSGNSQESVTEQDSKDSTYSLSSTLTLSKADYEKHKVYACEVTHQGLSSPVTKSFNRGEC |
| 73.4 % of control | 160 % of control | GpH7-A5/GpH7-B3 variant S298_02A/GpL16-k0 (antibody, human IgG1, kappa, also called He Ab; GpH7-A5/GpH7-B3-15-02A/GpL16-k0) heavy 1: not shown heavy 2: not shown light: DIVMTQSPLSLPVTPGEPASISCQASESLVHSNRNTYLHWYLQKPGQSPQLLIYKVSNRFSGVPDRFSGSGSGTDFTLKISRVEAEDVGVYYCSQNTHVPPTFGQGTKVEIERTVAAPSVFIFPPSDEQLKSGTASVVCLLNNFYPREAKVQWKVDNALQSGNSQESVTEQDSKDSTYSLSSTLTLSKADYEKHKVYACEVTHQGLSSPVTKSFNRGEC |
| 89.5 % of control | 108 % of control | GpH7-A5/GpH7-B3 variant I336_14T/GpL16-k0 (antibody, human IgG1, kappa, also called He Ab) heavy 1: not shown heavy 2: not shown light: DIVMTQSPLSLPVTPGEPASISCQASESLVHSNRNTYLHWYLQKPGQSPQLLIYKVSNRFSGVPDRFSGSGSGTDFTLKISRVEAEDVGVYYCSQNTHVPPTFGQGTKVEIERTVAAPSVFIFPPSDEQLKSGTASVVCLLNNFYPREAKVQWKVDNALQSGNSQESVTEQDSKDSTYSLSSTLTLSKADYEKHKVYACEVTHQGLSSPVTKSFNRGEC |
| 83.7 % of control | 102 % of control | GpH7-A5/GpH7-B3 variant I336_13S/GpL16-k0 (antibody, human IgG1, kappa, also called He Ab) heavy 1: not shown heavy 2: not shown light: DIVMTQSPLSLPVTPGEPASISCQASESLVHSNRNTYLHWYLQKPGQSPQLLIYKVSNRFSGVPDRFSGSGSGTDFTLKISRVEAEDVGVYYCSQNTHVPPTFGQGTKVEIERTVAAPSVFIFPPSDEQLKSGTASVVCLLNNFYPREAKVQWKVDNALQSGNSQESVTEQDSKDSTYSLSSTLTLSKADYEKHKVYACEVTHQGLSSPVTKSFNRGEC |
